The target of experiment [1] is EPCR R81A on stably transfected CHO745 cells (UniProt Q9UNN8). The experiment is described as follows: flow cytometry on cells. (In general: Flow cytometry measures light scatter and fluorescence of single cells or particles in a stream.)
Experiment [2] deals with wild-type EPCR on stably transfected CHO745 cells (UniProt Q9UNN8). The experiment is described as follows: flow cytometry on cells.
The target of experiment [3] is recombinant soluble EPCR (extracellular region, residues 18–210), biotinylated (UniProt Q9UNN8). In words: BLI. (BLI is a label-free optical method that tracks binding on a fibre tip over time.)

The source of these data is publication PMC4661071.

What is called Kd is the equilibrium constant for the complex coming apart.

In experiment [1], “Var19CIDRα1.1 recombinant protein (from UniProt A3R6S3 1-3373) (domain or fragment)” came in with a decrease of binding relative to wild type EPCR of 90%. In experiment [2], the MFI of Fl-APC on the cells with 250 µg/ml of the CIDR domain (1329 without) came out at 746; the double positive cells (CIDR and Fl-APC) at 250 µg/ml of the CIDR domain turned out to be 69%.
For the substance “activated protein C (APC), unlabeled (from UniProt P04070 43-197; P04070 43-197) (enzyme)”, in experiment [2], the mean fluorescence intensity (MFI) of APC labeling, without CIDR domains was found to be 994 and the percent of CHO745-EPCR cells labeled for APC, without CIDR domains came to 76%.
Consider “Var07CIDRα1.4 recombinant protein (domain or fragment)”, for which, in experiment [1], the decrease of binding relative to wild type EPCR is 80%. In experiment [2], this substance returned an MFI of Fl-APC on the cells with 100 µg/ml of the CIDR domain (1329 without) of 385; a double positive cells (CIDR and Fl-APC) at 100 µg/ml of the CIDR domain of 28%.
On to “fluorescein-labelled activated protein C (Fl-APC) (from UniProt P04070 43-197; P04070 43-197) (enzyme)”, for which, in experiment [2], the MFI of Fl-APC, without CIDR domains amounted to 1330 and the percent of cells that bound 50 µg/ml Fl-APC, without CIDR domains worked out at 78%.
With “Var06CIDRα1.1 recombinant protein (domain or fragment)”, the Kd in experiment [3] was 98 nM. Besides, in experiment [2], the MFI of Fl-APC on the cells with 250 µg/ml of the CIDR domain (1329 without) is 429; the double positive cells (CIDR and Fl-APC) at 250 µg/ml of the CIDR domain was 62%.
